Assay results: patent publication US20220002395A1 (FAPON BIOTECH, published 2022)

T1: Plasmodium falciparum histidine-rich protein II (HRP-II) (Plasmodium falciparum, UniProt P05227 22-332)
T1 construct: Coating antigen of all ELISAs; also called HRP-II protein; MA-HRPII Ag protein
T1 sequence (looked up): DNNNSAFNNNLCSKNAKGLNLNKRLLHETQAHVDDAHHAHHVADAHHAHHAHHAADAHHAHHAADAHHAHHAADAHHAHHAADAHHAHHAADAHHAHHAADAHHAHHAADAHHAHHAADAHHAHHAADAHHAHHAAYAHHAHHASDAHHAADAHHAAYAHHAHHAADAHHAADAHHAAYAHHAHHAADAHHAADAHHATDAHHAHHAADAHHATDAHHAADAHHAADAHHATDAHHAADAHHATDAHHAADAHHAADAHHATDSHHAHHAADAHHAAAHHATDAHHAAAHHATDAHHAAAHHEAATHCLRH

B1: Mutation 1-8 (antibody, mouse IgG2b, kappa, V domains shown)
VH: EVQLQQSGPEVVKPGASVKISCKASGYTITDYYMNWVKQSHGKGLEWIGDVNPIQGGTAYNQKFRDKATLTVDKSSNTAYMELRSLTSEDSALYYCTKGAEDYWGQGTTLTVSS
VL: DVVLTQTPLSLSVTIGQPASISCKSSQSLLYSQGKIYLNWFQQRPGQSPKRLMYQLSKLDPGIPDRFSGSGSETDFTLKISRVEAEDLGVYYCLQATYTPQTFGGGTKLEIKR
notes: Mutation 1 as framework
B2: Mutation 1-20 (antibody, mouse IgG2b, kappa, V domains shown)
VH: EVQLQQSGPEVVKPGASVKISCKASGSTITDYYMNWVKQSHGKGLEWIGDVNPIQGGTAYNQKFRDKATLTVDKSSNTAYMELRSLTSEDSALYYCTKGAEDYWGQGTTLTVSS
VL: DVVLTQTPLSLSVTIGQPASISCKSSQSIIYSQGKIYLNWFQQRPGQSPKRLMYQLSKLDPGIPDRFSGSGSETDFTLKISRVEAEDLGVYYCLQGTYYPQTFGGGTKLEIKR
notes: Mutation 1 as framework
B3: Mutation 1-11 (antibody, mouse IgG2b, kappa, V domains shown)
VH: EVQLQQSGPEVVKPGASVKISCKASGYTITDYYMNWVKQSHGKGLEWIGDVNPINGGTAYNQKFRDKATLTVDKSSNTAYMELRSLTSEDSALYYCTKGAEDYWGQGTTLTVSS
VL: DVVLTQTPLSLSVTIGQPASISCKSSQSIIYSNGKIYLNWFQQRPGQSPKRLMYQVSKLEPGIPDRFSGSGSETDFTLKISRVEAEDLGVYYCLQATYTPQTFGGGTKLEIKR
notes: Mutation 1 as framework
B4: Mutation 1-26 (antibody, mouse IgG2b, kappa, V domains shown)
VH: EVQLQQSGPEVVKPGASVKISCKASGTTLTDYYMNWVKQSHGKGLEWIGDVNPIQGGTAYNQKFRDKATLTVDKSSNTAYMELRSLTSEDSALYYCTRGAEDYWGQGTTLTVSS
VL: DVVLTQTPLSLSVTIGQPASISCKSSQSLLYSQGKIYLNWFQQRPGQSPKRLMYQLSKLDPGIPDRFSGSGSETDFTLKISRVEAEDLGVYYCLQGTYYPQTFGGGTKLEIKR
notes: Mutation 1 as framework
B5: Mutation 1-23 (antibody, mouse IgG2b, kappa, V domains shown)
VH: EVQLQQSGPEVVKPGASVKISCKASGTTLTDYYMNWVKQSHGKGLEWIGDVNPIQGGTAYNQKFRDKATLTVDKSSNTAYMELRSLTSEDSALYYCTRGAEDYWGQGTTLTVSS
VL: DVVLTQTPLSLSVTIGQPASISCKSSQSIIYSNGKIYLNWFQQRPGQSPKRLMYQVSKLEPGIPDRFSGSGSETDFTLKISRVEAEDLGVYYCLQGTYYPQTFGGGTKLEIKR
notes: Mutation 1 as framework
B6: Mutation 1-33 (antibody, mouse IgG2b, kappa, V domains shown)
VH: EVQLQQSGPEVVKPGASVKISCKASGTTLTDYYMNWVKQSHGKGLEWIGDLNPIQGGTAYNQKFRDKATLTVDKSSNTAYMELRSLTSEDSALYYCTKGAEDYWGQGTTLTVSS
VL: DVVLTQTPLSLSVTIGQPASISCKSSQSLLYSNGKIYLNWFQQRPGQSPKRLMYQLSKLEPGIPDRFSGSGSETDFTLKISRVEAEDLGVYYCLQGTYSPQTFGGGTKLEIKR
notes: Mutation 1 as framework
B7: Mutation 1-31 (antibody, mouse IgG2b, kappa, V domains shown)
VH: EVQLQQSGPEVVKPGASVKISCKASGTTLTDYYMNWVKQSHGKGLEWIGDINPINGGTAYQQKFRDKATLTVDKSSNTAYMELRSLTSEDSALYYCTKGAEDYWGQGTTLTVSS
VL: DVVLTQTPLSLSVTIGQPASISCKSSQSLLYSNGKIYLNWFQQRPGQSPKRLMYQISKLEPGIPDRFSGSGSETDFTLKISRVEAEDLGVYYCLQGTYTPQTFGGGTKLEIKR
notes: Mutation 1 as framework
B8: Mutation 1-13 (antibody, mouse IgG2b, kappa, V domains shown)
VH: EVQLQQSGPEVVKPGASVKISCKASGSTLTDYYMNWVKQSHGKGLEWIGDINPIQGGTAYNQKFRDKATLTVDKSSNTAYMELRSLTSEDSALYYCTKGAEDYWGQGTTLTVSS
VL: DVVLTQTPLSLSVTIGQPASISCKSSQSILYSQGKIYLNWFQQRPGQSPKRLMYQISKLEPGIPDRFSGSGSETDFTLKISRVEAEDLGVYYCLQGTYYPQTFGGGTKLEIKR
notes: Mutation 1 as framework
B9: Mutation 1-21 (antibody, mouse IgG2b, kappa, V domains shown)
VH: EVQLQQSGPEVVKPGASVKISCKASGTTLTDYYMNWVKQSHGKGLEWIGDLNPIQGGTAYNQKFRDKATLTVDKSSNTAYMELRSLTSEDSALYYCTRGAEDYWGQGTTLTVSS
VL: DVVLTQTPLSLSVTIGQPASISCKSSQSLLYSQGKIYLNWFQQRPGQSPKRLMYQLSKLEPGIPDRFSGSGSETDFTLKISRVEAEDLGVYYCLQGTYTPQTFGGGTKLEIKR
notes: Mutation 1 as framework
B10: Mutation 1-10 (antibody, mouse IgG2b, kappa, V domains shown)
VH: EVQLQQSGPEVVKPGASVKISCKASGYTITDYYMNWVKQSHGKGLEWIGDINPINGGTAYNQKFRDKATLTVDKSSNTAYMELRSLTSEDSALYYCTRGAEDYWGQGTTLTVSS
VL: DVVLTQTPLSLSVTIGQPASISCKSSQSLLYSNGKIYLNWFQQRPGQSPKRLMYQVSKLDPGIPDRFSGSGSETDFTLKISRVEAEDLGVYYCLQGTYYPQTFGGGTKLEIKR
notes: Mutation 1 as framework
B11: Mutation 1-22 (antibody, mouse IgG2b, kappa, V domains shown)
VH: EVQLQQSGPEVVKPGASVKISCKASGYTITDYYMNWVKQSHGKGLEWIGDINPIQGGTAYQQKFRDKATLTVDKSSNTAYMELRSLTSEDSALYYCTKGAEDYWGQGTTLTVSS
VL: DVVLTQTPLSLSVTIGQPASISCKSSQSIIYSNGKIYLNWFQQRPGQSPKRLMYQVSKLDPGIPDRFSGSGSETDFTLKISRVEAEDLGVYYCLQATYSPQTFGGGTKLEIKR
notes: Mutation 1 as framework
B12: Mutation 1-29 (antibody, mouse IgG2b, kappa, V domains shown)
VH: EVQLQQSGPEVVKPGASVKISCKASGYTITDYYMNWVKQSHGKGLEWIGDVNPIQGGTAYNQKFRDKATLTVDKSSNTAYMELRSLTSEDSALYYCTRGAEDYWGQGTTLTVSS
VL: DVVLTQTPLSLSVTIGQPASISCKSSQSIIYSQGKIYLNWFQQRPGQSPKRLMYQVSKLEPGIPDRFSGSGSETDFTLKISRVEAEDLGVYYCLQGTYYPQTFGGGTKLEIKR
notes: Mutation 1 as framework
B13: Mutation 1-19 (antibody, mouse IgG2b, kappa, V domains shown)
VH: EVQLQQSGPEVVKPGASVKISCKASGTTLTDYYMNWVKQSHGKGLEWIGDINPIQGGTAYNQKFRDKATLTVDKSSNTAYMELRSLTSEDSALYYCTRGAEDYWGQGTTLTVSS
VL: DVVLTQTPLSLSVTIGQPASISCKSSQSIIYSQGKIYLNWFQQRPGQSPKRLMYQISKLEPGIPDRFSGSGSETDFTLKISRVEAEDLGVYYCLQATYSPQTFGGGTKLEIKR
notes: Mutation 1 as framework
B14: Mutation 1-25 (antibody, mouse IgG2b, kappa, V domains shown)
VH: EVQLQQSGPEVVKPGASVKISCKASGYTITDYYMNWVKQSHGKGLEWIGDINPIQGGTAYNQKFRDKATLTVDKSSNTAYMELRSLTSEDSALYYCTRGAEDYWGQGTTLTVSS
VL: DVVLTQTPLSLSVTIGQPASISCKSSQSLLYSQGKIYLNWFQQRPGQSPKRLMYQISKLEPGIPDRFSGSGSETDFTLKISRVEAEDLGVYYCLQGTYTPQTFGGGTKLEIKR
notes: Mutation 1 as framework
B15: Mutation 1-15 (antibody, mouse IgG2b, kappa, V domains shown)
VH: EVQLQQSGPEVVKPGASVKISCKASGYTITDYYMNWVKQSHGKGLEWIGDLNPIQGGTAYNQKFRDKATLTVDKSSNTAYMELRSLTSEDSALYYCTRGAEDYWGQGTTLTVSS
VL: DVVLTQTPLSLSVTIGQPASISCKSSQSLIYSNGKIYLNWFQQRPGQSPKRLMYQLSKLEPGIPDRFSGSGSETDFTLKISRVEAEDLGVYYCLQGTYTPQTFGGGTKLEIKR
notes: Mutation 1 as framework
B16: Mutation 1-17 (antibody, mouse IgG2b, kappa, V domains shown)
VH: EVQLQQSGPEVVKPGASVKISCKASGYTITDYYMNWVKQSHGKGLEWIGDVNPINGGTAYNQKFRDKATLTVDKSSNTAYMELRSLTSEDSALYYCTKGAEDYWGQGTTLTVSS
VL: DVVLTQTPLSLSVTIGQPASISCKSSQSLLYSQGKIYLNWFQQRPGQSPKRLMYQVSKLEPGIPDRFSGSGSETDFTLKISRVEAEDLGVYYCLQGTYYPQTFGGGTKLEIKR
notes: Mutation 1 as framework
B17: Mutation 1-18 (antibody, mouse IgG2b, kappa, V domains shown)
VH: EVQLQQSGPEVVKPGASVKISCKASGYTLTDYYMNWVKQSHGKGLEWIGDLNPIQGGTAYNQKFRDKATLTVDKSSNTAYMELRSLTSEDSALYYCTKGAEDYWGQGTTLTVSS
VL: DVVLTQTPLSLSVTIGQPASISCKSSQSLLYSQGKIYLNWFQQRPGQSPKRLMYQISKLDPGIPDRFSGSGSETDFTLKISRVEAEDLGVYYCLQGTYTPQTFGGGTKLEIKR
notes: Mutation 1 as framework
B18: Mutation 1-14 (antibody, mouse IgG2b, kappa, V domains shown)
VH: EVQLQQSGPEVVKPGASVKISCKASGYTLTDYYMNWVKQSHGKGLEWIGDVNPINGGTAYNQKFRDKATLTVDKSSNTAYMELRSLTSEDSALYYCTKGAEDYWGQGTTLTVSS
VL: DVVLTQTPLSLSVTIGQPASISCKSSQSLIYSNGKIYLNWFQQRPGQSPKRLMYQLSKLDPGIPDRFSGSGSETDFTLKISRVEAEDLGVYYCLQATYTPQTFGGGTKLEIKR
notes: Mutation 1 as framework
B19: Mutation 1-32 (antibody, mouse IgG2b, kappa, V domains shown)
VH: EVQLQQSGPEVVKPGASVKISCKASGYTITDYYMNWVKQSHGKGLEWIGDVNPIQGGTAYQQKFRDKATLTVDKSSNTAYMELRSLTSEDSALYYCTRGAEDYWGQGTTLTVSS
VL: DVVLTQTPLSLSVTIGQPASISCKSSQSLLYSNGKIYLNWFQQRPGQSPKRLMYQLSKLDPGIPDRFSGSGSETDFTLKISRVEAEDLGVYYCLQATYYPQTFGGGTKLEIKR
notes: Mutation 1 as framework
B20: Mutation 1-28 (antibody, mouse IgG2b, kappa, V domains shown)
VH: EVQLQQSGPEVVKPGASVKISCKASGYTITDYYMNWVKQSHGKGLEWIGDINPIQGGTAYQQKFRDKATLTVDKSSNTAYMELRSLTSEDSALYYCTKGAEDYWGQGTTLTVSS
VL: DVVLTQTPLSLSVTIGQPASISCKSSQSIIYSNGKIYLNWFQQRPGQSPKRLMYQVSKLDPGIPDRFSGSGSETDFTLKISRVEAEDLGVYYCLQATYTPQTFGGGTKLEIKR
notes: Mutation 1 as framework
B21: Mutation 1-16 (antibody, mouse IgG2b, kappa, V domains shown)
VH: EVQLQQSGPEVVKPGASVKISCKASGYTITDYYMNWVKQSHGKGLEWIGDINPIQGGTAYNQKFRDKATLTVDKSSNTAYMELRSLTSEDSALYYCTRGAEDYWGQGTTLTVSS
VL: DVVLTQTPLSLSVTIGQPASISCKSSQSLLYSQGKIYLNWFQQRPGQSPKRLMYQVSKLDPGIPDRFSGSGSETDFTLKISRVEAEDLGVYYCLQGTYSPQTFGGGTKLEIKR
notes: Mutation 1 as framework

Molecular target: T1, Plasmodium falciparum histidine-rich …
Experiment: indirect ELISA, four antigen coating concentrations;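 also: optical density read across an antibody dilution series at each antigen coating level, curves plotted on log scale, KD derived as reciprocal of the averaged constant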
Experimental: The OD values corresponding to different antibody concentrations with different coating concentrations are obtained. Under the same coating concentration, the antibody concentrations are used as an abscissa, the 00 values are used as an ordinate, and a logarithmic plot is made. […] An average value thereof is taken and a reciprocal thereof is calculated to get the affinity constant KD.

Row | Binder | Kd
1 | B1 | 0.198 nM
2 | B2 | 0.251 nM
3 | B3 | 0.0213 nM
4 | B4 | 0.211 nM
5 | B5 | 0.364 nM
6 | B6 | 0.169 nM
7 | B7 | 0.0946 nM
8 | B8 | 0.0865 nM
9 | B9 | 0.0828 nM
10 | B10 | 0.827 nM
11 | B11 | 0.0814 nM
12 | B12 | 0.0835 nM
13 | B13 | 0.0835 nM
14 | B14 | 0.444 nM
15 | B15 | 0.245 nM
16 | B16 | 0.0824 nM
17 | B17 | 0.051 nM
18 | B18 | 0.226 nM
19 | B19 | 0.244 nM
20 | B20 | 0.012 nM
21 | B21 | 0.502 nM
